Assay results published in patent EP3338799A1 (AlderBio Holdings LLC, dated 2018).

How the values were obtained:
Assay in all cases: surface plasmon resonance, 25 °C
human IL-6 = biological target: T1, human IL-6 (human, UniProt P05231 30-212)
T1 construct: also called huIL-6; hIL-6

cynomolgus monkey IL-6 = biological target: T2, cynomolgus monkey IL-6 (cynomolgus monkey, UniProt P79341 28-212, limits assumed)
T2 construct: also called IL-6 of cynomolgus monkey
T2 sequence (looked up): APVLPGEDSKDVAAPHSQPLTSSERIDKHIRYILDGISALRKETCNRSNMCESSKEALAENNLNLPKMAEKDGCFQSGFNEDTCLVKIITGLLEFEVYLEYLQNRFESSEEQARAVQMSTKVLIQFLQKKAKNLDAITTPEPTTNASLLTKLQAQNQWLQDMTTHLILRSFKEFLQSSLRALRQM

rat IL-6 = biological target: T3, rat IL-6 (rat, UniProt P20607 25-211)
T3 construct: also called IL-6 from rat
T3 sequence (looked up): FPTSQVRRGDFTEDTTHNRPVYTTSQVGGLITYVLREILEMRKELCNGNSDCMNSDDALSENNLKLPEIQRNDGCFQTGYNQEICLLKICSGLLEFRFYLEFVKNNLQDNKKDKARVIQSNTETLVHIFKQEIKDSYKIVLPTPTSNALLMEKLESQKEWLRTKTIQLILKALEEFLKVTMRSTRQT

mouse IL-6 = biological target: T4, mouse IL-6 (mouse, UniProt P08505 25-211)
T4 construct: also called IL-6 from mouse
T4 sequence (looked up): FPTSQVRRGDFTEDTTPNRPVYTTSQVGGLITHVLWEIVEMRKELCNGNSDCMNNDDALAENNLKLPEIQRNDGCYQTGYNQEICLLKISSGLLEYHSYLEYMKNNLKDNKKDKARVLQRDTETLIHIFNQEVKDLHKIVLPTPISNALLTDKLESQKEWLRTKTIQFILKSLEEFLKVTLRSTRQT

B1: antibody Ab1 (antibody, human IgG1, kappa, N297A, V domains shown)
VH: EVQLVESGGGLVQPGGSLRLSCAASGFSLSNYYVTWVRQAPGKGLEWVGIIYGSDETAYATSAIGRFTISRDNSKNTLYLQMNSLRAEDTAVYYCARDDSSDWDAKFNLWGQGTLVTVSS
VL: AIQMTQSPSSLSASVGDRVTITCQASQSINNELSWYQQKPGKAPKLLIYRASTLASGVPSRFSGSGSGTDFTLTISSLQPDDFATYYCQQGYSLRNIDNAFGGGTKVEIKR
notes: It is a humanized (from rabbit), full length, aglycosylated antibody with human kappa and IgG gamma-1 constant regions, produced in Pichia pastoris; also called Ab1 monoclonal antibody; anti-IL-6 antibody Ab1
**Q.** Which Kd (human IL-6) does the source give for B1 here?
**A.** 0.004 nM

**Q.** And the Kd (cynomolgus monkey IL-6)?
**A.** 0.031 nM

**Q.** And the Kd (rat IL-6)?
**A.** 1.4 nM

**Q.** What about the Kd (mouse IL-6) of the same binder?
**A.** 0.4 nM
